From patent publication US20100291682, “SYSTEM FOR TRANSPOSING HYPERACTIVE RECOMBINANT DERIVATIVES OF MOS-1 TRANSPOSON” (published 2010)
Where a chain is given by its changes, count along the chain named.

Assays:
Test in all cases: cell_activity; 3T46 transposition in E. coli T5 vs 3T3/WT
Conditions in all cases: chain copies: 2
Mos-1 transposase FQET = molecular target: T1, Mos-1 transposase FQET (Drosophila mauritiana, UniProt Q7JQ07 SEQ:1-345, F53Y,Q91R,E137K,T216A)
T1 sequence: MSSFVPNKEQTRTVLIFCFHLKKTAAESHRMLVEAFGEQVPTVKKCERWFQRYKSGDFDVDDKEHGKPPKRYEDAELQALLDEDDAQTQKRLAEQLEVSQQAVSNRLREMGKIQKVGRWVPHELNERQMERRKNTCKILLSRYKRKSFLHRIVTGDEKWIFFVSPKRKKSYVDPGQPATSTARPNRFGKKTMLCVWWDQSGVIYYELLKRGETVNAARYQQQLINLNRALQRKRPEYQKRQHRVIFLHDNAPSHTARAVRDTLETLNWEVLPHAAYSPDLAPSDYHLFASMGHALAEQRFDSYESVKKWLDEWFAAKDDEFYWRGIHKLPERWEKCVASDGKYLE
Procedure: (§1) Escherichia coli JM109 bacteria were co-transformed with the pBC 3T3 plasmid (comprising a transposition reporter 2 ITR 3′ mariner-like element and the chloramphenicol resistance gene) and with the inducible vector encoding for the transposase (pKK-Tnp or pMal-Tnp) comprising the ampicillin resistance gene. The bacteria selection was performed on ampicillin (100 μg/ml) and chloramphenicol in order to verify the presence of the two plasmids.
(§2) The JM109 bacteria containing both the pBC 3T3 plasmid and the pKK-Tnp (or pMalC2X-Tnp) plasmid were placed in culture for 1 hr at 37° C. in 250 μl of LB. This inoculum was then poured into 5 ml of LB supplemented with 1 mM IPTG. The culture was titrated on LB plates (100 μl of a 1/1000 dilution) and on LB-Tet plates (12.5 μg/ml) (250 μl of the non-diluted culture). The culture induced by IPTG was then cultured for 5 hours at 32° C. (optimal temperature of transposase) under stirring (250 rpm). The bacterial suspension was then titrated on LB plates (100 μl of a 1/250,000 dilution) and on LB-tet plates (100 μl of the undiluted bacterial suspension). The plates were placed at 37° C. overnight. The following day, the colonies were counted on LB and LB-Tet plates, and the transposition frequency (equal to the number of tetracycline bacteria over the number of bacterial per 1 ml of undiluted bacterial suspension) was calculated.
(§3) In order to evaluate the transposition efficiency of systems associating a hyperactive transposase and a pseudo-transposon that is also hyperactive, various combinations were tested in the transposition test in bacteria described in part I, paragraph I-B above.

Mos-1 transposase FQ = molecular target: T2, Mos-1 transposase FQ (Drosophila mauritiana, UniProt Q7JQ07 SEQ:1-345, F53Y,Q91R)
T2 sequence: T1 sequence with K137E, A216T
Procedure: as §1, §2, §3

Mos-1 transposase TY = molecular target: T3, Mos-1 transposase TY (Drosophila mauritiana, UniProt Q7JQ07 SEQ:1-345, T216A,Y237C)
T3 sequence: T1 sequence with Y53F, R91Q, K137E, Y237C
Procedure: as §1, §2, §3

Mos-1 transposase ET = molecular target: T4, Mos-1 transposase ET (Drosophila mauritiana, UniProt Q7JQ07 SEQ:1-345, E137K,T216A)
T4 sequence: T1 sequence with Y53F, R91Q
Procedure: as §1, §2, §3

Mos-1 transposase FQETY = molecular target: T5, Mos-1 transposase FQETY (Drosophila mauritiana, UniProt Q7JQ07 SEQ:1-345, F53Y,Q91R,E137K,T216A,Y237C)
T5 sequence: T1 sequence with Y237C
Procedure: as §1, §2, §3

B1: ITR46 (dsDNA)
DNA 1: TCAGGTGTACAAGTATGAGATGTCGTTT
DNA 2: AAACGACATCTCATACTTGTACACCTGA
activity (Mos-1 transposase FQET): 12.3 fold | activity (Mos-1 transposase FQ): 3.3 fold | activity (Mos-1 transposase TY): 61.8 fold | activity (Mos-1 transposase ET): 6.7 fold | activity (Mos-1 transposase FQETY): 2.3 fold
